Results published in US20260015403A1 (LENTIGEN TECHNOLOGY, published 2026).

T1: BCMA on BCMA-positive multiple myeloma tumor lines RPMI-8226 and MM1.S (human, UniProt Q02223 1-184)
T1 sequence (looked up): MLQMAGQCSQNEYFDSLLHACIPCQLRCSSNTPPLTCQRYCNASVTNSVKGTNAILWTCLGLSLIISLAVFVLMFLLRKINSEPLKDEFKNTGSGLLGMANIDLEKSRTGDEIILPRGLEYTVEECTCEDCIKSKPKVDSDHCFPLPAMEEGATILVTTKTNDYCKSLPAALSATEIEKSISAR

T2: recombinant human BCMA (ectodomain)-Fc (human, UniProt Q02223 1-54)
T2 construct: extracellular domain; also called BCMA-Fc; BCMA-Fc peptide; not shown: Fc part
T2 sequence (looked up): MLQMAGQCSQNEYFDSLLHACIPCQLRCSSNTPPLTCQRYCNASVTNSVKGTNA


The binders below were run against T1, BCMA on BCMA-positive multiple myeloma … (assay: cell-based or functional assay).

| Binder | tumor lysis of RPMI-8226-luc, luciferase-based killing assay, E:T 5 |
| --- | --- |
| CAR D0087 (Ef1a-BCMA sequence 40 CD8 BBz) (other) EVQLVQSGGGVVQPGGSLRLSCAASGFTFSSYGMHWVRQAPGKGLEWVAFIRYDGSNKYYADSVKGRFTISRDNSKNTLYLQMNSLRAEDTAVYYCAKEPPEYYYDSSGYSWGQGTLVTVSSGGGGSGGGGSGGGGSDIQLTQSPSSLSASVGDRVTITCQASQDIDTYLNWYQQKPGKAPKLLIYAASSLQSGVSSRFSGSGSGTEFTLTISSLQPEDFATYFCQQTYSPPITFGQGTRLEIKRAAATTTPAPRPPTPAPTIASQPLSLRPEACRPAAGGAVHTRGLDFACDIYIWAPLAGTCGVLLLSLVITLYCKRGRKKLLYIFKQPFMRPVQTTQEEDGCSCRFPEEEEGGCELRVKFSRSADAPAYQQGQNQLYNELNLGRREEYDVLDKRRGRDPEMGGKPRRKNPQEGLYNELQKDKMAEAYSEIGMKGERRRGKGHDGLYQGLSTATKDTYDALHMQALPPR | > 40% |
| CAR D0086 (Ef1a-BCMA sequence 37 CD8 BBz) (other) EVQLVESGGGLVKPGGSLRLSCAASGFTFSSYGMHWVRQAPGKGLEWVAFIRYDGSNKYYADSVKGRFTISRDNSKNTLYLQMNSLRAEDTAVYYCAKDWEYSGYDAHPGWGQGTLVTVSSGGGGSGGGGSGGGGSDIQLTQSPSSLSASVGDRVTITCRASQGISSALAWYQQKPGKAPKLLIYDASSLESGVPSRFSGSGSGTEFTLTISSLQPEDFATYFCQQTYSPPITFGQGTRLEIKRAAATTTPAPRPPTPAPTIASQPLSLRPEACRPAAGGAVHTRGLDFACDIYIWAPLAGTCGVLLLSLVITLYCKRGRKKLLYIFKQPFMRPVQTTQEEDGCSCRFPEEEEGGCELRVKFSRSADAPAYQQGQNQLYNELNLGRREEYDVLDKRRGRDPEMGGKPRRKNPQEGLYNELQKDKMAEAYSEIGMKGERRRGKGHDGLYQGLSTATKDTYDALHMQALPPR | > 40% |
| BCMA CAR construct with ScFv sequence 39 (MTB-39) (other, not shown: large carriers) EVQLVESGGGVVQPGGSLRLSCAASGFTFSGYGMHWVRQAPGKGLEWVAFIRYDGSNKYYADSVKGRFTISRDNSKNTLYLQMNSLRAEDTAVYYCARDGARNDYWGQGTLVTVSSGGGGSGGGGSGGGGSNFMLTQPHSVSESPGKTVTISCTRSSGSIASNYVQWYQQRPGSAPTTVIYEDNQRPSGVPDRFSGSIDSSSNSASLTISGLKTEDEADYYCQTYDDNNHVIFGGGTQLTVLG | > 40% |
| BCMA CAR construct with ScFv sequence 28 (MTB-28) (other, not shown: large carriers) QVQLVESGGGVVQPGGSLRLSCAASGFTFSSYGMHWVRQAPGKGLEWVAFIRYDGSNKYYADSVKGRFTISRDNSKNTLYLQMNSLRAEDTAVYYCARDSYSSSGDPRAFDPWGQGTLVTVSSGGGGSGGGGSGGGGSNFMLTQPHSVSESPGKTVTISCTGSSGSIASNYVQWYQQRPGSAPSTVIFEDNQRPSGVPGRFSGSVDRSSNSASLTISGLKTEDEADYYCQSYDSNNRGLFGGGTKVTVLG | > 40% |
| BCMA CAR construct with ScFv sequence 50 (MTB-50) (other, not shown: large carriers) EVQLVQSGGGVVRPGGSLRLSCAASGFTFSTYEMNWVRQAPGKGLEWLAYIGGSGSPIYYADSVRGRFTISRDNTKNSLFLQMSSLRAEDTAVYYCVEGWFDKWGLGTLVTVSSGGGGSGGGGSGGGGSDIQLTQSPSTLSASVGDRVTITCRASQSISSYLNWYQQKPGKAPKLLIYDASNLETGVPSRFSGSGSGTDFTLTISSLQPEDFATYYCQQSYSTPYTFGQGTKLEIKR | > 40% |
| BCMA CAR construct with ScFv sequence 3 (MTB-3) (other, not shown: large carriers) EVQLVESGGGVVQPGGSLRLSCAASGFTFSSYGMHWVRQAPGKGLEWVAFIRYDGSNKYYADSVKGRFTISRDNSKNTLYLQMNSLRAEDTAVYYCAKDDYGGNSEGDYWGQGTLVTVSSGGGGSGGGGSGGGGSEIVLTQSPATLSVSLGERATLSCRASQSVSNSLAWYQQKPGQAPRLLIYDASTRATGIPARFSGSGSGTEFTLTISSLQPEDFATYFCQQTYSPPITFGQGTRLEIKR | > 40% |
| BCMA CAR construct with ScFv sequence 2 (MTB-2) (other, not shown: large carriers) EVQLVQSGGGLVQPGGSLRLSCAASGFTFSSYWMSWVRQAPGKGLEWVSGINGSGDRTYYADSVKGRFTISRDNSKNTLYLQMNSLRAEDTAVYYCANYNYDDNSGYGLGQGTLVTVSSGGGGSGGGGSGGGGSQSVLTQPPSVSVAPGKTARITCGGNNIGSKSVHWYQQKPGQAPVLVIYDDSDRPSGIPERFSGSNSGNTATLTISRVEAGDEADYYCQVWDSSSDHWVFGGGTKVTVLG | ≤ 40% |
| CAR D0100 (Ef1a-BCMA sequence 4-45 CD8 BBz) (other) EVQLVQSGAEVKKPGASVKVSCKASGYTSTSYYMHWVRQAPGQGLEWMGIINPSGGSTSYAQKFQGRVTMTRDTSTSTVYMELSSLRSEDTAVYYCARDLGDGAFDIWGQGTMVTVSSGGGGSGGGGSGGGGSDIQMTQSLSSLSASVGDRVTIACRASQTISRYLNWYQQKPGKAPKLLIYAASSLQSGVSSRFSGSGSGTEFTLTISSLQPEDFATYFCQQTYSPPITFGQGTRLEIKRAAATTTPAPRPPTPAPTIASQPLSLRPEACRPAAGGAVHTRGLDFACDIYIWAPLAGTCGVLLLSLVITLYCKRGRKKLLYIFKQPFMRPVQTTQEEDGCSCRFPEEEEGGCELRVKFSRSADAPAYQQGQNQLYNELNLGRREEYDVLDKRRGRDPEMGGKPRRKNPQEGLYNELQKDKMAEAYSEIGMKGERRRGKGHDGLYQGLSTATKDTYDALHMQALPPR | > 40% |
| CAR D0099 (Ef1a-BCMA sequence 4-12 CD8 BBz) (other) QVQLVQSGGGVVQPGGSLRLSCAASGFTFSSYVIHWVRQAPGKGLEWVAAISHDGSNKYYADSVKGRFTISRDNSKNTLYLQMSSLSAEDTAMYYCVKTSSDYYYAYWGQGTLVTVSSGGGGSGGGGSGGGGSQTVVTQEPSFSVSPGGTVTLTCGLSSGSVSTGNSPTWYQQTPGQAPRTLIYSTNTRSSGVPDRFSGSILGNKAALTITGAQADDESDYYCVLYMGSGYWVFGGGTKVTVLGAAATTTPAPRPPTPAPTIASQPLSLRPEACRPAAGGAVHTRGLDFACDIYIWAPLAGTCGVLLLSLVITLYCKRGRKKLLYIFKQPFMRPVQTTQEEDGCSCRFPEEEEGGCELRVKFSRSADAPAYQQGQNQLYNELNLGRREEYDVLDKRRGRDPEMGGKPRRKNPQEGLYNELQKDKMAEAYSEIGMKGERRRGKGHDGLYQGLSTATKDTYDALHMQALPPR | > 40% |
| BCMA CAR construct with ScFv sequence 49 (MTB-49) (other, not shown: large carriers) EVQLVESGGGVVQPGRSLRLSCAASGFTFSSYGMHWVRQAPGKGLEWVAFIRYDGSNKYYADSVKGRFTISRDNSKNTLYLQMNSLRAEDTAVYYCVSDDYGGNSGTSYWGQGTLVTVSSGGGGSGGGGSGGGGSDIQMTQSPSSLSASVGDRVTITCQASQDISNYLNWYQQKPGKAPKLLIYDASNLETGVPSRFSGSGSGTDFTLTISSLQPEDFATYYCQQSYSTPVTFGGGTKLTVLG | > 40% |
| BCMA CAR construct with ScFv sequence 14 (MTB-14) (other, not shown: large carriers) EVQLVESGGGVVQPGRSLRLSCAASGFTFSSYGMHWVRQAPGKGLEWVAFIRYDGSNKYYADSVKGRFTISRDNSKNTLYLQMNSLRAEDTAVYYCVSDDYGGNSGTSYWGQGTLVTVSSGGGGSGGGGSGGGGSDIQMTQSPSSLSASVGDRVTITCQASQDISNYLNWYQQKPGKAPKLLIYDASNLETGVPSRFSGSGSGTDFTLTISSLQPEDFATYYCQQSYSTPVTFGGGTKLTVLG | > 40% |
| CAR D0085 (Ef1a-BCMA sequence 16 CD8 BBz) (other) EVQLVQSGGGVVQPGGSLRLSCAASGFTFSSYGMHWVRQAPGKGLEWVAFIRYDGSNKYYADSVKGRFTISRDNSKNTLYLQMNSLRAEDTAVYYCARDLNDYGDPPPYWGQGTLVTVSSGGGGSGGGGSGGGGSDIQMTQSPSSLSASVGDRVTITCRASQSISSYLNWYQQKPGKAPKLLIYDASNLETGVSSRFSGSGSGTEFTLTISSLQPEDFATYFCQQTYSPPITFGQGTRLEIKRAAATTTPAPRPPTPAPTIASQPLSLRPEACRPAAGGAVHTRGLDFACDIYIWAPLAGTCGVLLLSLVITLYCKRGRKKLLYIFKQPFMRPVQTTQEEDGCSCRFPEEEEGGCELRVKFSRSADAPAYQQGQNQLYNELNLGRREEYDVLDKRRGRDPEMGGKPRRKNPQEGLYNELQKDKMAEAYSEIGMKGERRRGKGHDGLYQGLSTATKDTYDALHMQALPPR | > 40% |

The binders below were run against T2, recombinant human BCMA (ectodomain)-Fc (assay: flow cytometry of transduced T cells; staining with recombinant human BCMA Fc chimera then anti-Fc-Alexa Fluor 647 (method in paragraph 320)).
Method: To assess the cell surface expression of BCMA CARs, 0.5-1e6 CAR T-cells were resuspended in FACs buffer (Miltenyi Biotec's autoMACS Rinsing Solution+MACS BSA Stock Solution) and incubated with 0.5 ug of recombinant human BCMA Fc Chimera Protein (RNDsystems) for 20 mins at 4° C. Cells were washed twice and re-suspended in FACs buffer and incubated for 20 mins at 4° C. with anti-Fc-Alexa Fluor 647 at 1:200 dilution. Cells were again washed twice and resuspended in FACs buffer and incubated for 20 mins at 4° C. with anti-CD4-Vioblue or anti-CD8-Viogreen (Miltenyi Biotec) at 1:50 dilution and 7AAD at 1:20 dilution. Cells were subsequently washed and analyzed using the MACSQuant® Analyzer 10 flow cytometer (Miltenyi Biotec).

| Binder | binding result |
| --- | --- |
| CAR D0153 (BCMA 4-1c CD8 BBz) (other, Chimeric antigen receptor on transduced human primary T cells; also called D153; CAR D153) EVQLVETGGGVVQPGGSLRLSCAASGFTFSSYGMHWVRQAPGKGLEWVAFIRYDGSNKYYADSVKGRFTISRDNSKNTLYLQMNSLRAEDTAVYYCAKDWDTYYYDSSGYDRAWGQGTLVTVSSGGGGSGGGGSGGGGSDIQMTQSPSSLSASVGDRVTITCQASQDINNYLNWYQQKPGKAPKLLIYAASSLQSGVSSRFSGSGSGTEFTLTISSLQPEDFATYFCQQTYSPPITFGQGTRLEIKRAAATTTPAPRPPTPAPTIASQPLSLRPEACRPAAGGAVHTRGLDFACDIYIWAPLAGTCGVLLLSLVITLYCKRGRKKLLYIFKQPFMRPVQTTQEEDGCSCRFPEEEEGGCELRVKFSRSADAPAYQQGQNQLYNELNLGRREEYDVLDKRRGRDPEMGGKPRRKNPQEGLYNELQKDKMAEAYSEIGMKGERRRGKGHDGLYQGLSTATKDTYDALHMQALPPR | binds |
